Test results: the domain aggregation screens of Martell et al. (2025)

Experiment: soluble fraction after stress (log2 fold change); higher = more stays soluble; pooled small domains, quantitative proteomics
Details: stress: 50 degC
Outline: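 Pooled custom libraries of small protein domains were measured in a high-throughput format, with quantitative proteomics as the read-out. Each library was stressed at 50°C. Aggregation propensity is given as the base-two logarithm of the fold change in how much of each protein stays soluble after the stress. Higher values mean a larger share of the protein remains in solution.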

| Sequence | soluble fraction (log2) |
| --- | --- |
| HMGIILDWELFEQFADKLKRKKVDFVIEPYLRFEGRRGEQSTLFIKDPSGNYLEFKAFKNIDMLFEK | -0.874 |
| HMKNLNVIDLSALRTLELKESSDWTLIQKRFKLLVKKYHPDMNAGSKQYEEKLKKITLAYTHLKKLF | -2.42 |
| HMLAMHVVESVGGAEQFTKLQNFAKTQNADYQKMWNDTMNSGNVLAIKTMLSGIQSDMIAVQ | -0.16 |
| HMSDYYEVLGVTRQADAEEIKRAYRRKARQLHPDVAGPGHEEEFKEVTVAYEVLSDPEKRQAYDLGGQDAL | 0.179 |
| HMDATIGGFKITDSAIYSGVKNNVNAGVRGTYIDKDGQIAFGDSNSYLKYYKDTDGKWKLEVSASSVKF | 0.139 |
| HMDGPGAGGRFLAEDLGTGKMTLEALQRHYVTLVYSRTGKYEETARRLEIDRRTVKKYLDEELLAELRET | 0.084 |
| HMDSLNWVEKIINTLPEQQRLIIQMRDIEQYEFAEIAKILEMNETAIRVALSRARKTIREFMIKTH | -1.07 |
| HMRQMSEELQSAKEALEDRRTQEKAVLLLMEHRNISNDEAHRLLRKLAMDQGKRLPEVARALVSMAGVL | 0.132 |
| HMTDVGLEAAKAAALKHAGLSADQVTGLTAKLDWDDGQRVYEVDFWQGSTEYEYEINADGTVRQYESEAH | 0.228 |
| HMTQGRVTGDGVNVRSQPNTDSAILTRVSTGKVVELISLKDNWYNVVVNGTKGYIRADYVSPYDG | -0.0101 |
| HMAPSVNEVAWAQKIIDAHAEAAAAGKGLVVVDGKLIENLHVEEAKQLLSLSDAIAKNDASNG | 0.16 |
| HMGRQVTVPNVTGMLVEEARAAISEAELWVDSPRAVQGEVTRQEPARGERLSPGQEVRIYTES | 0.31 |
| HMNYKDQISRYFQQAFHIYPKYQTMKNEEGNFTSKIFKDDKMIIEGVGKSKKKAEQDVSRKALIHFNVL | -0.262 |
| HMKTLGMDKGVNIALNDAGLRAEDVSNLSAHYDTEDGVPVYEIKFTAGGFSYEYQIKASDGTIIEADRDAA | -0.108 |
| HMASVAKHIRRLRTERHMTQGDLAEKLFVTRQTVSAWETGKAQPDLETLERIAVVLGVEVTELIYGAP | -0.0295 |
| HMGVTDLFAVLGFPRSPWLDAEELKQRHHALMADEASANSSPTILNEARRTLQNPALRIRHFLALEFPDH | -0.397 |
| HMENNIPANIKALIISYVNQNYPGAVIHSIERNSNGTYDVEIYYNNREYDLLFDAQGNFISGNVDDQ | 0.0611 |
| HMGMTAPIPGVVLKVSVLPGQKVERGDELLTIEAMKMFNVMRSPSSGTIATVHIKDGDRVVQGQPLVTFA | 0.025 |
| HMNADTVIGKAGTVIEKIDNVAATGAVKIDGKVWTARSERDNITIDEGTLVKAMAIEGVKLIVEPVT | 0.198 |
| HMFEMPTSLVRTLSAIAIKQPVMQSEIIKLRGAGAYDHIKELIIRELVHRKEEGRSPILTTTKKFQEYFRL | -2.33 |
| HMEDQFWQNRAEMALASARRAGRIVTYAEMADAADIPAPQRIHKLTLWLEATMRQDHASGQPLRAALV | 0.0463 |
| HMNNGTDGLTTRLRRAILAGQYTFKERLPSERQLAEHFNTSRGTVRKVLQRLTTMNLVEQRAGSGTYVRYG | -0.2 |
| HMRPTAWEQVSRHIDQHGSIGNTEVRKAMETENVLAASKQIKKWLEQGLLIILNPTAGTRARRYSKPNM | -0.287 |

| Sequence | soluble fraction (log2) |
| --- | --- |
| HMVPTVSVDRDDTLRFEGRPVDWDVLKRELGAVAGIDELKIYADAKVSALTVSKIMKSASEAGVLQFILVT | -0.188 |
| HMKSLLDQINGIGAIRKRALLNHFGSARAVESASLDEIKSVEGVEAKVAKKIYNFFHEYKNMLR | -1.12 |
| HMIVDARNREINLGSHVRYVDTGTVGEVTDSKVENDASWVKIDKTNLWYLANKLELLNDEDFKT | 0.0653 |
| HMVYVPTKAEVSQQFQDASKARFDERYAIVELADGRRTMAPLAFLTKADHAWLKQLASTSPLPKGK | 0.0196 |
| HMGTPEQVVVSSVLKETNEIVLKWPADGFMAKYKMDNLNLNFEPVHGQGVMGYFIGSRLIKLELV | -0.251 |
| HMENTIPSVIGRTLSDGVFLLESYGYVKGNVSEEFSEMPIGVIIRQFPGAGSAAEAGTRVDLVVSKGEEIV | -0.0523 |
| HMPDGTATATASVNVRSGASTLSPVLGVLRVGESIGVTGQANGGWVPVNYNGRAGYVYAAYLSFD | -0.161 |
| HMSATVLVHVLGEVRKPGVVSLPEGSRVQDAITAAGGLTSRAKPGDLNLAARVSDGAQLVIGRSGSQVRTT | -0.0286 |
| HMSPTEQEKIGLFIKKLREEKNLTQEAFASLLKTSQSAVARIESGNQNITIEQLMKIGEVLNHNIVSI | 0.0103 |
| HMLPKLAEEYAIMEIRGKGENLTAKLINKGGDSFMVRNGTVLQTGHRIDEITQTYVRAEINGMKDYLYFA | 0.417 |
| HMVGEPEPIRYSRFLDEMKSGKLDSVVIQGDTILGVRKDKSQFKTVNPETDYSALIGALDKAGVGIEGRA | 0.146 |
| HMNTSSVTVHYQDEAGKSLADTVTLTGKVGETYSSEQKKITGYNFKEVRGNPKGQFTTEAQTVTYVYTQAA | 0.156 |
| HMQWQPSEEAMQRLEQHGIPRAFSFSQLDAFVLQGQEQGSNRNDWNTRFFRFIKNQWVYAQN | -1.62 |
| HMEPAPELTPREQQVLARIALGMTDKAIAEELGVSHQTVRNHVARIYQKIKVHSRSQAVVWAREKGI | -0.192 |
| HMIEKGSDALEKELRKNNLSINEFLTNKNIDIILDELKLKDIDDLYVNIALGKYTPNQIIKIVNK | 0.237 |
| HMIVDINDVRIDKYIADNTDYSRNLILNLIKNGDILVNDSKIKPSYKVKQGDKITINNVKTD | 0.227 |
| HMKKRDAEIMLQREFKLTEAIAMVRDRDIQELLPIALYFKVNINQPTAEIRYNLLNIAKSKTQEFIEAFD | -1.96 |
| HMNIWNEWAFKKWIESDEYTGPDMTDFGHRTLVDEEFSKQYKEQMSLFKERVLTDDEFSAKYGDL | -0.66 |
| HMNESEALIARIENLPPIEDLTEKHAEEVKALMTVYSKLKMSDRILVTNYGVLKKDFDALVKKGFLTNED | 0.0784 |
| HMLVIMKTGASEEEIGRVIERIEGEGLSAHVSRGTERTVIGVIGQGVDVHRIAGVLGGMSGVESLVPIS | 0.0405 |
| HMVDSLTIGRRIRQLRTERGMTLEELAAAVGRAPSQLSMIENGRREPKLTLLQAIARALGSTLDALLE | -0.116 |
| HMIDVGSKIRSLRKSKNISISTLAKNSDLSTGLISQIERNMVVPSIVAMWKISKALDINIGYFFE | -2.42 |
| HMITLYIHNLEEVGKRLDHYLVSNLDDHSRSQIQSWIRSGSILVNDRSVKTGYSLELNDQILINPPK | -2.63 |

| Sequence | soluble fraction (log2) |
| --- | --- |
| HMSVAVKAPLQGTVMKVNVKPGDTVTKGAPVAVIEALKMENDVPAPQDGVVASVDVKSGDSVKTDQVLLTL | 0.182 |
| HMESRRVTLLLPYDKAGIADTLRREAAVLSLEYGEDGVTVEAVVKPELWGLVREYVQNDNPK | 0.166 |
| HMAVSPEEQKKRIIELFRNRNEVSFKEIFDLPTKGHFVITLLAVLDLARQQIVIMEQLENEGIIKFTKGA | -0.0715 |
| HMERLSNQVYAILKEMIADYRFNPGARINVEQIAKEVGASRTPVWEAVHRLVQEGLLENIPNRGVFML | -1.41 |
| HMQRNLILKLDTDQPEIYKKLESIFVEINGLLVPFFIEKIIWSKQDSLNILFKNSSEALVEQLIGKNVFLP | 0.0989 |
| HMEVSEGEIREKVESVFSSNPRQAYNYKQISKKLNINDKSERQIVWDVLRKLAGSGKIQEVEHGRFRARAE | 0.122 |
| HMVTTADIILEFYSRNPNATLTQAAQHVARATGTTYSRQAISAQLKRLEVAGLVERNGHVTV | -0.393 |
| HMINSFDYLQAIFTELMKSQSKMTNQDAAKRLFMQGKVAVSNRDREGLRMVLAQLVTLLPKEELGGLSTVS | 0.0921 |
| HMITKEDVANKKVNLLFFGNFHKMKLPDFEWGITEMMQDRDYLYGSLTKDLYFLGLVLDRKYKI | 0.0334 |
| HMDIYLDDINRKILHLLSQGVKTKSLRDYIDLSMSAIEKRKKHLKDLFLIEDGKDETLLSEARKKGF | -0.672 |
| HMKEADVRKNEILDAAGILFSEKGYDNTSVTDIMNAVGFAKGTLYHHFKSKEDIMDALIKRQTD | 0.219 |
| HMTNNDIIRRVRYLFNFSDKQVIELFKLANETVSIEHVSGWLKKEEDPTLIEISDRDLAVFLNGLII | 0.237 |
| HMGQDLSYYIKIVQNQQPVDPLTGEPKVLDYGEVIRQAQILQMLDTGDLDRDKAIGQLSMKDAL | 0.0152 |
| HMNVSDIENKLNEMLSPLEKKVMVLYLEGKSYVEIGELLGRHTKSVDNALQRVKRKLEIYLKNRK | -1.22 |
| HMKSVQIPQSITVKEFSQAIEVSVADVIKKLMSMGVMVSQNKEINVDTAILVGEEFGVTVNVA | 0.0996 |
| HMSGITDIITDGKATSRPVVVTDGGHIRVLSPYTSFAIYTLGGMSLPTESRLEPGIYIVVVDSNAVKVAV | -0.619 |
| HMWMEKEELLWNDIIRGGVERGELREDTDIQEAAALFRQVFIGLAYQMSFSDGLDVGILRKRFHHIYGLLT | 0.0187 |
| HMDHSSLIKKLRLERGLSQKKLAQGISQRSTLASFENNATKISYNILIQYLDRMNVTLEEYQFMLDGNNL | -2.06 |
| HMESPVNTLPEDQRAWYKALPPELSTKTAVEAGAGVGVSERTVKRLLSNQTFFINLQRGNYRKRH | 0.172 |
| HMNTEEITYSRFQQMLEAGEISQVSIESNRILILPSEETGIEKVLYTGIINDPGLVERLNSAGVEFRAPIE | -0.00156 |
| HMGSDAFDISKLNLVGKTKESAESLLKENGFSVDTKEEASDTAAKGTVISYSPTKPKNGERVTLTVSSGK | 0.337 |
| HMGDIMLLFKENGKVYFLVGNQYTYVKNPTELSAIKTMMKQAGYDTHEHTNTTQVAYIKRLATE | -2.11 |
